Broadly, the Kd is the free concentration of one partner at which half of the binding sites on the other are occupied at equilibrium, for simple one-to-one binding.

The source of these data is patent US20250076311A1 (Chugai, published 2025).

Experiment [1] concerns the target T1, human FcγRIIIaV extracellular domain, His-tagged (human, UniProt P08637 17-208).
T1 construct: also called human FcgRIIIaV; not shown: His-tag added to the C-terminus
Kind of experiment: SPR (BIACORE), antibody captured on chip, soluble FcgR as analyte, 25 C. Background: Surface plasmon resonance follows binding to a sensor surface in real time, without labels.

Experiment [2] addresses T2, cynomolgus monkey FcγRIIIaS extracellular domain, His-tagged (cynomolgus monkey, UniProt A3RFZ7 21-206 (rhesus entry)).
T2 construct: also called cyno FcgRIIIaS; cynoFcγRIIIaS; not shown: His-tag added to the C-terminus
The experiment is described as above.

Experiment [3] has as its target T3, human FcγRIIaR extracellular domain, His-tagged (human, UniProt P12318 34-217).
T3 construct: also called human FcgRIIaR; FcγRIIa (type R); not shown: His-tag added to the C-terminus
T3 chain: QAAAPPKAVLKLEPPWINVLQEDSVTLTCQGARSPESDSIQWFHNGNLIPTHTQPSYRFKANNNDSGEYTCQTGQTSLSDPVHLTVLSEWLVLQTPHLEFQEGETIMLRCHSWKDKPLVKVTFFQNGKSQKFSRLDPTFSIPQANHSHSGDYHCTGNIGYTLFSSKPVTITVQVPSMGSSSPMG
The experiment in a line: SPR (BIACORE); KD of SG1 divided by KD of the variant. On the procedure: (§1) The kinetic analysis of interactions between these antibodies and FcγR was carried out using BIACORE® T200 or BIACORE® 4000 (GE Healthcare). HBS-EP+ (GE Healthcare) was used as the running buffer, and the measurement temperature was set to 25° C. […] After the measurement, the antibody captured on the chip was washed off by allowing reaction with 10 mM glycine-HCl, pH1.5 and 25 mM NaOH so that the chip was regenerated and used repeatedly. The sensorgrams obtained as measurement results were analyzed by the 1:1 Langmuir binding model using the BIACORE® Evaluation Software to calculate the binding rate constant ka (L/mol/s) and dissociation rate constant kd (1/s), and the dissociation constant KD (mol/L) was calculated from these values. […] Regarding such interactions, KD values were calculated using the following 1:1 binding model described in BIACORE® T100 Software Handbook BR1006-48 Edition AE.

Experiment [4] deals with T4, cynomolgus monkey FcγRIIa3 extracellular domain, His-tagged (cynomolgus monkey).
T4 construct: also called cyno FcgRIIa3; cynoFcγRIIa3; not shown: His-tag added to the C-terminus
T4 chain: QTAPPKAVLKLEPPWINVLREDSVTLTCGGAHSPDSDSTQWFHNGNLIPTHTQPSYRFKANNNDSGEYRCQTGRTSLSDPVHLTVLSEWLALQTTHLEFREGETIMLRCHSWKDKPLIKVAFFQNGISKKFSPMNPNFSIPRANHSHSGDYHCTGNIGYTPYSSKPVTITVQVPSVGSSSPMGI
The experiment is described as above. On the procedure: as §1

For experiment [5], the target named is T5, human FcγRIIaH extracellular domain, His-tagged (human, UniProt P12318 34-217).
T5 construct: also called human FcgRIIaH; FcγRIIa (type H); not shown: His-tag added to the C-terminus
T5 sequence: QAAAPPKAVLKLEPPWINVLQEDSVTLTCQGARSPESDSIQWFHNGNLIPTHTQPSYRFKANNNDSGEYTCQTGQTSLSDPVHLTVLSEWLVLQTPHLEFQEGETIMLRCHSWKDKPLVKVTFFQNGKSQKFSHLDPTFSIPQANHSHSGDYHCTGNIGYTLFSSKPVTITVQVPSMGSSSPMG
Described as above. As for the experimental part: as §1

Experiment [6] deals with T4, cynomolgus monkey FcγRIIa3 …. The experiment in a line: SPR (BIACORE), antibody captured on chip, soluble FcgR as analyte, 25 C.
For experiment [7], the target named is T6, cynomolgus monkey FcγRIIa1 extracellular domain, His-tagged (cynomolgus monkey).
T6 construct: also called cyno FcgRIIa1; cynoFcγRIIa1; not shown: His-tag added to the C-terminus
T6 chain: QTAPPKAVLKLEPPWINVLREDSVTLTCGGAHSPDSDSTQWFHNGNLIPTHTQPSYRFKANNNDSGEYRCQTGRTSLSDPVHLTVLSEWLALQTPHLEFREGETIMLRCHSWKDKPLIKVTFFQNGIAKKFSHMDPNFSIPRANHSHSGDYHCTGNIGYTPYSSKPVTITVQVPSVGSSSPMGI
The description is as above.

In experiment [8] the target is T7, human FcγRIIb extracellular domain, His-tagged (human, UniProt P31994 43-217).
T7 construct: also called human FcgRIIb; not shown: His-tag added to the C-terminus
T7 sequence: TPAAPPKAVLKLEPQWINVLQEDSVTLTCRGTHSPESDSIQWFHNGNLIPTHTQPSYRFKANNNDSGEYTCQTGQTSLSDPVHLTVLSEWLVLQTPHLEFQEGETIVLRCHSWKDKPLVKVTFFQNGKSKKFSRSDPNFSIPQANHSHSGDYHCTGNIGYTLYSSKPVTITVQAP
Kind of experiment: SPR (BIACORE); KD of SG1 divided by KD of the variant. On the procedure:
as §1

Experiment [9] deals with T2, cynomolgus monkey FcγRIIIaS …. The experiment is described as above. On the procedure:
as §1

Experiment [10] deals with T1, human FcγRIIIaV extracellular domain, …. The experiment is described as above. On the procedure: as §1
The next experiment has as its target T8, Mouse latent myostatin (mouse, UniProt O08689 26-267; O08689 268-376, limits assumed).
T8 sequence 1: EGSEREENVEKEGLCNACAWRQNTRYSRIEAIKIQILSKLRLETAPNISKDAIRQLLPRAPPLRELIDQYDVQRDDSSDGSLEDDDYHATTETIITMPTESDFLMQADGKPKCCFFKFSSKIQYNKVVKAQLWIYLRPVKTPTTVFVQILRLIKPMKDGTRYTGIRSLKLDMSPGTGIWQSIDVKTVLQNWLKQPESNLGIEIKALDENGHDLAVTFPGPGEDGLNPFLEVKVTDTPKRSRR
T8 sequence 2: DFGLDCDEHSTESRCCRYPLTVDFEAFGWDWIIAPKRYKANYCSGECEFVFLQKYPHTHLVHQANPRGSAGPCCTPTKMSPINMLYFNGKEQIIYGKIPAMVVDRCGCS
The experiment in a line: SPR (Biacore T200), 37C, pH 7.4, antibody captured on ProA/G. On the procedure:
ProA/G (Pierce) was immobilized onto all flow cells of a CM4 chip using an amine coupling kit (GE Healthcare). All antibodies and analytes were prepared in ACES pH7.4 or pH5.8 buffer containing 20 mM ACES, 150 mM NaCl, 1.2 mM CaCl₂, 0.05% TWEEN® 20, 0.005% NaN3. […] The sensor surface was regenerated each cycle with 10 mM Glycine HCl pH1.5. Binding affinity was determined by processing and fitting the data to a 1:1 binding model using BIACORE® T200 Evaluation software, version 2.0 (GE Healthcare).

T2 sequence (A3RFZ7 21-206): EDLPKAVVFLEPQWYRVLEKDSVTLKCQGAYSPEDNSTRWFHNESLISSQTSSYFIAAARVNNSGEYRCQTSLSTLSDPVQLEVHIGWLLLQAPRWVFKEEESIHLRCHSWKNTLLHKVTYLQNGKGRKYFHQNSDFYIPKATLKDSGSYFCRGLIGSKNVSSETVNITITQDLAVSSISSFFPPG
T1 sequence (P08637 17-208 F176V): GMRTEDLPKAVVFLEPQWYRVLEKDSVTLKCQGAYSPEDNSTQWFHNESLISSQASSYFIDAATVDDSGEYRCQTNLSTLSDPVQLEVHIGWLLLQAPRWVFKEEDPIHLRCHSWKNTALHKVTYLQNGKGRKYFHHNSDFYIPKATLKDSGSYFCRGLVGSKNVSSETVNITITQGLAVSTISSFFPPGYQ

B1: M103205H795-MY260/M103202L889-SK1 (antibody)
heavy: QVTLKESGPVLVKPTETLTLTCTVSGIDLSHDDISWVRQAPGKGLEWVGIISYAGSTYYASWAKGRLTISKDTSKNQVVLTMTNMDPVDTATYYCARGVPAYSHGGDLWGQGTLVTVSSASTKGPSVFPLAPSSKSTSGGTAALGCLVKDYFPEPVTVSWNSGALTSGVHTFPAVLQSSGLYSLSSVVTVPSSSLGTQTYICNVNHKPSNTKVDKKVEPKSCDKTHTCPPCPAPELLMGPSVFLFPPKPKDTLMISRTPEVTCVVVDVSDEDPEVKFNWYVDGVEVHNAKTKPREEQYNSTYRVVSVLTVLHQDWLNGKEYKCKVSNKALPKPIEKTISKAKGQPREPQVYTLPPSREEMTKNQVSLTCLVKGFYPSDIAVEWESNGQPENNYKTTPPVLDSDGSFFLYSKLTVDKSRWQQGNVFSCSVMHEALHNHYTQKSLSLSP
light: DIVMTQSPATLSLSPGERATLSCTSSQSVYHANWLSWFQQKPGQPPKLLIYWASTLAYGVPSRFSGSGSGTDFTLTISSLQPEDAATYYCAGGYGGGRYAFGQGTKVEIKRTVAAPSVFIFPPSDEQLKSGTASVVCLLNNFYPREAKVQWKVDNALQSGNSQESVTEQDSKDSTYSLSSTLTLSKADYEKHKVYACEVTHQGLSSPVTKSFNRGEC
With B1, the Kd in experiment [1] came out at 30 µM; in experiment [2] it was 0.85 µM. Also, the “KD fold (SG1 = 1)” value in experiment [3] worked out at 0.5 fold; in [4] it was 1.7 fold; in experiment [5] it was 0.7 fold.

B2: M103205H795-MY262/M103202L889-SK1 (antibody, human IgG1, kappa, name in EU numbering)
heavy: QVTLKESGPVLVKPTETLTLTCTVSGIDLSHDDISWVRQAPGKGLEWVGIISYAGSTYYASWAKGRLTISKDTSKNQVVLTMTNMDPVDTATYYCARGVPAYSHGGDLWGQGTLVTVSSASTKGPSVFPLAPSSKSTSGGTAALGCLVKDYFPEPVTVSWNSGALTSGVHTFPAVLQSSGLYSLSSVVTVPSSSLGTQTYICNVNHKPSNTKVDKKVEPKSCDKTHTCPPCPAPELLVGPSVFLFPPKPKDTLMISRTPEVTCVVVDVSDEDPEVKFNWYVDGVEVHNAKTKPREEQYNSTYRVVSVLTVLHQDWLNGKEYKCKVSNKALPKPIEKTISKAKGQPREPQVYTLPPSREEMTKNQVSLTCLVKGFYPSDIAVEWESNGQPENNYKTTPPVLDSDGSFFLYSKLTVDKSRWQQGNVFSCSVMHEALHNHYTQKSLSLSP
light: DIVMTQSPATLSLSPGERATLSCTSSQSVYHANWLSWFQQKPGQPPKLLIYWASTLAYGVPSRFSGSGSGTDFTLTISSLQPEDAATYYCAGGYGGGRYAFGQGTKVEIKRTVAAPSVFIFPPSDEQLKSGTASVVCLLNNFYPREAKVQWKVDNALQSGNSQESVTEQDSKDSTYSLSSTLTLSKADYEKHKVYACEVTHQGLSSPVTKSFNRGEC
notes: Asn at EU 236 of MY201 replaced with Val
For B2, the figures for the dissociation constant Kd in [6] and in experiment [7] were 80 µM and 1.5 µM, respectively. The “KD fold (SG1 = 1)” value in experiment [8] was 0.3 fold; in experiment [9], 0.35 fold.

B3: M103205H795-MY263/M103202L889-SK1 (antibody, human IgG1, kappa, name in EU numbering)
heavy: QVTLKESGPVLVKPTETLTLTCTVSGIDLSHDDISWVRQAPGKGLEWVGIISYAGSTYYASWAKGRLTISKDTSKNQVVLTMTNMDPVDTATYYCARGVPAYSHGGDLWGQGTLVTVSSASTKGPSVFPLAPSSKSTSGGTAALGCLVKDYFPEPVTVSWNSGALTSGVHTFPAVLQSSGLYSLSSVVTVPSSSLGTQTYICNVNHKPSNTKVDKKVEPKSCDKTHTCPPCPAPELLQGPSVFLFPPKPKDTLMISRTPEVTCVVVDVSDEDPEVKFNWYVDGVEVHNAKTKPREEQYNSTYRVVSVLTVLHQDWLNGKEYKCKVSNKALPKPIEKTISKAKGQPREPQVYTLPPSREEMTKNQVSLTCLVKGFYPSDIAVEWESNGQPENNYKTTPPVLDSDGSFFLYSKLTVDKSRWQQGNVFSCSVMHEALHNHYTQKSLSLSP
light: DIVMTQSPATLSLSPGERATLSCTSSQSVYHANWLSWFQQKPGQPPKLLIYWASTLAYGVPSRFSGSGSGTDFTLTISSLQPEDAATYYCAGGYGGGRYAFGQGTKVEIKRTVAAPSVFIFPPSDEQLKSGTASVVCLLNNFYPREAKVQWKVDNALQSGNSQESVTEQDSKDSTYSLSSTLTLSKADYEKHKVYACEVTHQGLSSPVTKSFNRGEC
notes: Asn at EU 236 of MY201 replaced with Gln
Molecule B3 displayed a Kd in experiment [6] of 73 µM. Further, the “KD fold (SG1 = 1)” value in [10] was found to be 0.39 fold.

B4: MS1032LO10-SG1 (antibody, human IgG1, kappa, V domains shown)
VH: QVTLKESGPVLVKPTETLTLTCTVSGIDLSHTDISWVRQAPGKGLEWVGIISYAGKTYYASWAKKRLTISKDTSKNQVVLTMTNMDPVDTATYYCARGVPAYSHGGDLWGQGTLVTVSS
VL: DIVMTQSPATLSLSPGERATLSCTSSQSVYHANWLSWFQQKPGQPPKLLIYWASTLAYGVPSRFSGSGSGTDFTLTISSLQPEDAATYYCAGGYGGGRYAFGQGTKVEIKR
In the experiment with Mouse latent myostatin, B4 displayed a Kd of 0.000314 µM.
